Assay results taken from paper PMC10842940, “Establishment of dsDNA-dsDNA interactions by the condensin complex” (Molecular cell, 2023).

T1: Cnd1^Ycs4 (fission yeast condensin HEAT-repeat subunit) (S. pombe, UniProt O94679 1-1158)
T1 construct: Cnd1 (Ycs4), S. pombe condensin HEAT-repeat subunit; cDNA cloned into an S. cerevisiae expression vector; source: S. cerevisiae (w303, pep4 deleted), co-overexpressed with the other four condensin subunits from GAL1-10 promoters; in cell extract, and purified as the complex (IgG-agarose, 3C protease elution, heparin, Superose 6)
T1 sequence (looked up): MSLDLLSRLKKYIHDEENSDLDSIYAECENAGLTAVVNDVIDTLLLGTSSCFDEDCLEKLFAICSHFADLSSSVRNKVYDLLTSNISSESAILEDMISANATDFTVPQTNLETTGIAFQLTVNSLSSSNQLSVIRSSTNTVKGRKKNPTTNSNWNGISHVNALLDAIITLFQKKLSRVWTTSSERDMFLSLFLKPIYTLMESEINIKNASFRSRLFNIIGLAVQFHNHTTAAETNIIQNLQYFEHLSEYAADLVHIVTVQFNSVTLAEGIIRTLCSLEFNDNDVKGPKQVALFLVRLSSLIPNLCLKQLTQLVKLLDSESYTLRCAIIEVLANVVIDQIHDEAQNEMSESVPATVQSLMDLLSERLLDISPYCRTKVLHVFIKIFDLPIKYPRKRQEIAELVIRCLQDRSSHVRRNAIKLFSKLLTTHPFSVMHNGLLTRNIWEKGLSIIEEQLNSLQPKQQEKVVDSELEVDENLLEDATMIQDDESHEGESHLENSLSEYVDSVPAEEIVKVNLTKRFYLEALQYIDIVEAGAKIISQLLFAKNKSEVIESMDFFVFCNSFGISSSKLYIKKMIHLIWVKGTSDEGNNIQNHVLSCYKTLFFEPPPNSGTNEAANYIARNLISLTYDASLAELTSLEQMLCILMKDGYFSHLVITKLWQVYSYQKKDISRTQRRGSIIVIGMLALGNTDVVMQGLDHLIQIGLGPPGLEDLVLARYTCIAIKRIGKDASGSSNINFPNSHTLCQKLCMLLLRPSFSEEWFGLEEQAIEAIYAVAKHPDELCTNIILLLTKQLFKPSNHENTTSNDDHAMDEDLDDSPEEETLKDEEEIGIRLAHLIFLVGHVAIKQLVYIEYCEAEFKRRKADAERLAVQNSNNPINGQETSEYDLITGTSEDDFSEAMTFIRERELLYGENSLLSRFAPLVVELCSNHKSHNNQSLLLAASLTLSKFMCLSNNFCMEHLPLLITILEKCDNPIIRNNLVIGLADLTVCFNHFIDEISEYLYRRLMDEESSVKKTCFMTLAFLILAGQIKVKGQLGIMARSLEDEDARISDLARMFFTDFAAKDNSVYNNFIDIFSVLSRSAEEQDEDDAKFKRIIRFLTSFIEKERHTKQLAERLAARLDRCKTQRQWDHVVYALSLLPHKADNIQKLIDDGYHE


Tests used:
[1] = system: condensin pentamer (Schizosaccharomyces pombe); assay: condensin immunoprecipitation, 500 mM NaCl wash; settings: Mg2+, ATP, binding buffer, pH and temperature not given in material, washes at 500 mM NaCl (topological loading) or 100 mM NaCl (gripping state)
[2] = system: condensin pentamer;condensin pentamer (Schizosaccharomyces pombe;Schizosaccharomyces pombe); assay: second DNA capture by condensin preloaded on bead-bound DIG-5kb-DIG; settings: binding buffer, pH and temperature not given in material; Mg2+ and ATP; washes at 500 mM NaCl (topological loading) or 100 mM NaCl (gripping state)
[3] = target: T1, Cnd1^Ycs4 (fission yeast condensin …); assay: cross-linking; sulfo-SDA cross-link mass spectrometry (CLMS) of the purified five-subunit condensin complex with equimolar 124 bp linear dsDNA and 0.5 mM ADP·BeF3 (DNA-gripping state); CL buffer, 30°C 30 min, UV 365 nm on ice; 1% FDR at residue-pair level; settings: both partners purified

binding result [3]	Molecule	binding signal (% of input DNA recovered) [1]	binding signal (% of second dsDNA captured) [2]
	supercoiled pBlueScript KSII(+)	> 40	10
binds	Cnd2^Brn1 (fission yeast condensin kleisin subunit) (natural protein, S. pombe, UniProt Q9Y7R3 1-742, looked up, Cnd2 (Brn1), S. pombe condensin kleisin subunit; cDNA cloned into an S. cerevisiae expression vector; The 2xProtA tag was still on the chain while the complex was captured on rabbit IgG-agarose (assay a1); also called Cnd2-2xProtA; source: S. cerevisiae (w303, pep4 deleted), co-overexpressed with the other four condensin subunits from GAL1-10 promoters; in cell extract, and purified as the …) MKRASLGGHAPVSLPSLNDDALEKKRAKENSRKQRELRRSSALHSITPRRESLNNSSPFNSSHQVPVLSNFEEWIKLATDNKINSTNTWNFALIDYFHDMSLLRDGEDINFQKASCTLDGCVKIYTSRIDSVATETGKLLSGLANDSKVLQQTEEGEDAENDDEDLQKKKERKRAQRSVKTLVKDFESIRAKKFELECSFDPLFKKMCADFDEDGAKGLLMNHLCVDQHGRIVFDSSDTVIKDLENKDVEAESQEAVVAAPIESHDTEMTNVHDNISRETLNGIYKCYFTDIDQLTICPSLQGFEFDSKGNLDVSLLKSLSDEVNMITTTSLVDNTMEKTDADAASLSSDSDGEEGHIVHALEEMAYDEENPYVDVVPKAMDESENPDFGVDTEVNMADGSTMNENYSIISTAAANGVYEYFDKSMKKNWAGPEHWRIQALRKNINNASTVFNSSNTAESSDNVSRSLSSTERKKRRELDNAIDFLQEVDVEALFTPATSSLKLPKSHWKRHNRCLLPDDYQYDSKRLLQLFLKPKMSVLPNADGEGQLQLNKALDDENDLDGIQPHGFDSDGSDNVDEGIPPYGFGDSDSPKQTPLLTPPSSSGFGDNLLLTARLAKPDMLNYAKRAKKVDVRVLKEKLWKCLDLENTIKENSINSHIEGSEMESEETNMPVKSFFSTVNQLEETYEKKELKDISTSFAFICVLHLANEHNLELTSNEDFSDVFIRPGPNLTTLEALENDV		
